Data: patent publication US20250171562A1

B1: CIgG4F5A1(G4S)3 (Fc fusion)
chain 1: GPPCPPCPAPEFLGGPSVFLFPPKPKDTLMISRTPEVTCVVVDVSQEDPEVQFNWYVDGVEVHNAKTKPREEQFNSTYRVVSVLTVLHQDWLNGKEYKCKVSNKGLPSSIEKTISKAKGQPREPQVYTLPPCQEEMTKNQVSLWCLVKGFYPSDIAVEWESNGQPENNYKTTPPVLDSDGSFFLYSRLTVDKSRWQEGNVFSCSVMHEALHNHYTQKSLSLSLGKGGGGSGGGGSGGGGSDVQLQESGGGLVQPGGSLRLSCAASGSIFSIDIMGWYRQAPGKQRELVATMPEGNYINYADSVKGRLTLSRDKGKNTVYLQLNSLKPEDTAVYYCYGFGVREGRGNVYWGQGTQVTVS
chain 2: GPPCPPCPAPEFLGGPSVFLFPPKPKDTLMISRTPEVTCVVVDVSQEDPEVQFNWYVDGVEVHNAKTKPREEQFNSTYRVVSVLTVLHQDWLNGKEYKCKVSNKGLPSSIEKTISKAKGQPREPQVCTLPPSQEEMTKNQVSLSCAVKGFYPSDIAVEWESNGQPENNYKTTPPVLDSDGSFFLVSRLTVDKSRWQEGNVFSCSVMHEALHNHYTQKSLSLSLGKGGGGSGGGGSGGGGSEVQLLESGGGLVQPGGSLRLSCAASGFTFGNYDMAWVRQAPGKRPEWVSSIDTGGDITHYADSVKGRFTISRDNAKNTLYLQMNSLRPEDTAVYWCATDEEYALGPNEFDYYGQGTLVTVSS
B2: NIgG4F5A1(G4S)2 (Fc fusion)
chain 1: DVQLQESGGGLVQPGGSLRLSCAASGSIFSIDIMGWYRQAPGKQRELVATMPEGNYINYADSVKGRLTLSRDKGKNTVYLQLNSLKPEDTAVYYCYGFGVREGRGNVYWGQGTQVTVSGGGGSGGGGSGPPCPPCPAPEFLGGPSVFLFPPKPKDTLMISRTPEVTCVVVDVSQEDPEVQFNWYVDGVEVHNAKTKPREEQFNSTYRVVSVLTVLHQDWLNGKEYKCKVSNKGLPSSIEKTISKAKGQPREPQVYTLPPCQEEMTKNQVSLWCLVKGFYPSDIAVEWESNGQPENNYKTTPPVLDSDGSFFLYSRLTVDKSRWQEGNVFSCSVMHEALHNHYTQKSLSLSLGK
chain 2: EVQLLESGGGLVQPGGSLRLSCAASGFTFGNYDMAWVRQAPGKRPEWVSSIDTGGDITHYADSVKGRFTISRDNAKNTLYLQMNSLRPEDTAVYWCATDEEYALGPNEFDYYGQGTLVTVSSGGGGSGGGGSGPPCPPCPAPEFLGGPSVFLFPPKPKDTLMISRTPEVTCVVVDVSQEDPEVQFNWYVDGVEVHNAKTKPREEQFNSTYRVVSVLTVLHQDWLNGKEYKCKVSNKGLPSSIEKTISKAKGQPREPQVCTLPPSQEEMTKNQVSLSCAVKGFYPSDIAVEWESNGQPENNYKTTPPVLDSDGSFFLVSRLTVDKSRWQEGNVFSCSVMHEALHNHYTQKSLSLSLGK
B3: CIgG4F5A1(G4S)1 (Fc fusion)
chain 1: GPPCPPCPAPEFLGGPSVFLFPPKPKDTLMISRTPEVTCVVVDVSQEDPEVQFNWYVDGVEVHNAKTKPREEQFNSTYRVVSVLTVLHQDWLNGKEYKCKVSNKGLPSSIEKTISKAKGQPREPQVYTLPPCQEEMTKNQVSLWCLVKGFYPSDIAVEWESNGQPENNYKTTPPVLDSDGSFFLYSRLTVDKSRWQEGNVFSCSVMHEALHNHYTQKSLSLSLGKGGGGSDVQLQESGGGLVQPGGSLRLSCAASGSIFSIDIMGWYRQAPGKQRELVATMPEGNYINYADSVKGRLTLSRDKGKNTVYLQLNSLKPEDTAVYYCYGFGVREGRGNVYWGQGTQVTVS
chain 2: GPPCPPCPAPEFLGGPSVFLFPPKPKDTLMISRTPEVTCVVVDVSQEDPEVQFNWYVDGVEVHNAKTKPREEQFNSTYRVVSVLTVLHQDWLNGKEYKCKVSNKGLPSSIEKTISKAKGQPREPQVCTLPPSQEEMTKNQVSLSCAVKGFYPSDIAVEWESNGQPENNYKTTPPVLDSDGSFFLVSRLTVDKSRWQEGNVFSCSVMHEALHNHYTQKSLSLSLGKGGGGSEVQLLESGGGLVQPGGSLRLSCAASGFTFGNYDMAWVRQAPGKRPEWVSSIDTGGDITHYADSVKGRFTISRDNAKNTLYLQMNSLRPEDTAVYWCATDEEYALGPNEFDYYGQGTLVTVSS
B4: NIgG4F5A1(G4S)3 (Fc fusion)
chain 1: DVQLQESGGGLVQPGGSLRLSCAASGSIFSIDIMGWYRQAPGKQRELVATMPEGNYINYADSVKGRLTLSRDKGKNTVYLQLNSLKPEDTAVYYCYGFGVREGRGNVYWGQGTQVTVSGGGGSGGGGSGGGGSGPPCPPCPAPEFLGGPSVFLFPPKPKDTLMISRTPEVTCVVVDVSQEDPEVQFNWYVDGVEVHNAKTKPREEQFNSTYRVVSVLTVLHQDWLNGKEYKCKVSNKGLPSSIEKTISKAKGQPREPQVYTLPPCQEEMTKNQVSLWCLVKGFYPSDIAVEWESNGQPENNYKTTPPVLDSDGSFFLYSRLTVDKSRWQEGNVFSCSVMHEALHNHYTQKSLSLSLGK
chain 2: EVQLLESGGGLVQPGGSLRLSCAASGFTFGNYDMAWVRQAPGKRPEWVSSIDTGGDITHYADSVKGRFTISRDNAKNTLYLQMNSLRPEDTAVYWCATDEEYALGPNEFDYYGQGTLVTVSSGGGGSGGGGSGGGGSGPPCPPCPAPEFLGGPSVFLFPPKPKDTLMISRTPEVTCVVVDVSQEDPEVQFNWYVDGVEVHNAKTKPREEQFNSTYRVVSVLTVLHQDWLNGKEYKCKVSNKGLPSSIEKTISKAKGQPREPQVCTLPPSQEEMTKNQVSLSCAVKGFYPSDIAVEWESNGQPENNYKTTPPVLDSDGSFFLVSRLTVDKSRWQEGNVFSCSVMHEALHNHYTQKSLSLSLGK
B5: NIgG4F6A1(RS) (Fc fusion)
chain 1: DVQLQESGGGLVQAGGSLRLSCAASGLTFGSYDMGWYRQAPGKQRELVGRIRNDGITYYADSVKGRFTMSRDNAKNTVYLQMNSLKPEDTAVYYCAADGTGLGHYDYWGQGTQVTVSRSGPPCPPCPAPEFLGGPSVFLFPPKPKDTLMISRTPEVTCVVVDVSQEDPEVQFNWYVDGVEVHNAKTKPREEQFNSTYRVVSVLTVLHQDWLNGKEYKCKVSNKGLPSSIEKTISKAKGQPREPQVYTLPPCQEEMTKNQVSLWCLVKGFYPSDIAVEWESNGQPENNYKTTPPVLDSDGSFFLYSRLTVDKSRWQEGNVFSCSVMHEALHNHYTQKSLSLSLGK
chain 2: EVQLLESGGGLVQPGGSLRLSCAASGFTFGNYDMAWVRQAPGKRPEWVSSIDTGGDITHYADSVKGRFTISRDNAKNTLYLQMNSLRPEDTAVYWCATDEEYALGPNEFDYYGQGTLVTVSSRSGPPCPPCPAPEFLGGPSVFLFPPKPKDTLMISRTPEVTCVVVDVSQEDPEVQFNWYVDGVEVHNAKTKPREEQFNSTYRVVSVLTVLHQDWLNGKEYKCKVSNKGLPSSIEKTISKAKGQPREPQVCTLPPSQEEMTKNQVSLSCAVKGFYPSDIAVEWESNGQPENNYKTTPPVLDSDGSFFLVSRLTVDKSRWQEGNVFSCSVMHEALHNHYTQKSLSLSLGK
B6: NIgG4F6A1(G4S)1 (Fc fusion)
chain 1: DVQLQESGGGLVQAGGSLRLSCAASGLTFGSYDMGWYRQAPGKQRELVGRIRNDGITYYADSVKGRFTMSRDNAKNTVYLQMNSLKPEDTAVYYCAADGTGLGHYDYWGQGTQVTVSGGGGSGPPCPPCPAPEFLGGPSVFLFPPKPKDTLMISRTPEVTCVVVDVSQEDPEVQFNWYVDGVEVHNAKTKPREEQFNSTYRVVSVLTVLHQDWLNGKEYKCKVSNKGLPSSIEKTISKAKGQPREPQVYTLPPCQEEMTKNQVSLWCLVKGFYPSDIAVEWESNGQPENNYKTTPPVLDSDGSFFLYSRLTVDKSRWQEGNVFSCSVMHEALHNHYTQKSLSLSLGK
chain 2: EVQLLESGGGLVQPGGSLRLSCAASGFTFGNYDMAWVRQAPGKRPEWVSSIDTGGDITHYADSVKGRFTISRDNAKNTLYLQMNSLRPEDTAVYWCATDEEYALGPNEFDYYGQGTLVTVSSGGGGSGPPCPPCPAPEFLGGPSVFLFPPKPKDTLMISRTPEVTCVVVDVSQEDPEVQFNWYVDGVEVHNAKTKPREEQFNSTYRVVSVLTVLHQDWLNGKEYKCKVSNKGLPSSIEKTISKAKGQPREPQVCTLPPSQEEMTKNQVSLSCAVKGFYPSDIAVEWESNGQPENNYKTTPPVLDSDGSFFLVSRLTVDKSRWQEGNVFSCSVMHEALHNHYTQKSLSLSLGK
B7: CIgG4F5A1(RS) (Fc fusion)
chain 1: GPPCPPCPAPEFLGGPSVFLFPPKPKDTLMISRTPEVTCVVVDVSQEDPEVQFNWYVDGVEVHNAKTKPREEQFNSTYRVVSVLTVLHQDWLNGKEYKCKVSNKGLPSSIEKTISKAKGQPREPQVYTLPPCQEEMTKNQVSLWCLVKGFYPSDIAVEWESNGQPENNYKTTPPVLDSDGSFFLYSRLTVDKSRWQEGNVFSCSVMHEALHNHYTQKSLSLSLGKRSDVQLQESGGGLVQPGGSLRLSCAASGSIFSIDIMGWYRQAPGKQRELVATMPEGNYINYADSVKGRLTLSRDKGKNTVYLQLNSLKPEDTAVYYCYGFGVREGRGNVYWGQGTQVTVS
chain 2: GPPCPPCPAPEFLGGPSVFLFPPKPKDTLMISRTPEVTCVVVDVSQEDPEVQFNWYVDGVEVHNAKTKPREEQFNSTYRVVSVLTVLHQDWLNGKEYKCKVSNKGLPSSIEKTISKAKGQPREPQVCTLPPSQEEMTKNQVSLSCAVKGFYPSDIAVEWESNGQPENNYKTTPPVLDSDGSFFLVSRLTVDKSRWQEGNVFSCSVMHEALHNHYTQKSLSLSLGKRSEVQLLESGGGLVQPGGSLRLSCAASGFTFGNYDMAWVRQAPGKRPEWVSSIDTGGDITHYADSVKGRFTISRDNAKNTLYLQMNSLRPEDTAVYWCATDEEYALGPNEFDYYGQGTLVTVSS
B8: CIgG4F5A1(G4S)2 (Fc fusion)
chain 1: GPPCPPCPAPEFLGGPSVFLFPPKPKDTLMISRTPEVTCVVVDVSQEDPEVQFNWYVDGVEVHNAKTKPREEQFNSTYRVVSVLTVLHQDWLNGKEYKCKVSNKGLPSSIEKTISKAKGQPREPQVYTLPPCQEEMTKNQVSLWCLVKGFYPSDIAVEWESNGQPENNYKTTPPVLDSDGSFFLYSRLTVDKSRWQEGNVFSCSVMHEALHNHYTQKSLSLSLGKGGGGSGGGGSDVQLQESGGGLVQPGGSLRLSCAASGSIFSIDIMGWYRQAPGKQRELVATMPEGNYINYADSVKGRLTLSRDKGKNTVYLQLNSLKPEDTAVYYCYGFGVREGRGNVYWGQGTQVTVS
chain 2: GPPCPPCPAPEFLGGPSVFLFPPKPKDTLMISRTPEVTCVVVDVSQEDPEVQFNWYVDGVEVHNAKTKPREEQFNSTYRVVSVLTVLHQDWLNGKEYKCKVSNKGLPSSIEKTISKAKGQPREPQVCTLPPSQEEMTKNQVSLSCAVKGFYPSDIAVEWESNGQPENNYKTTPPVLDSDGSFFLVSRLTVDKSRWQEGNVFSCSVMHEALHNHYTQKSLSLSLGKGGGGSGGGGSEVQLLESGGGLVQPGGSLRLSCAASGFTFGNYDMAWVRQAPGKRPEWVSSIDTGGDITHYADSVKGRFTISRDNAKNTLYLQMNSLRPEDTAVYWCATDEEYALGPNEFDYYGQGTLVTVSS

Each binder was assayed against mixture of three Der p 2 specific recombinant human IgE clones H10, H12, P4E (human) (UniProt P01854) (assay: RBL-SX38 IgE displacement, FACS).
Chain of mixture of three Der p 2 specific recombinant human IgE clones H10, H12, P4E (human) (P01854 other isoform, or with tags, fused parts or gaps): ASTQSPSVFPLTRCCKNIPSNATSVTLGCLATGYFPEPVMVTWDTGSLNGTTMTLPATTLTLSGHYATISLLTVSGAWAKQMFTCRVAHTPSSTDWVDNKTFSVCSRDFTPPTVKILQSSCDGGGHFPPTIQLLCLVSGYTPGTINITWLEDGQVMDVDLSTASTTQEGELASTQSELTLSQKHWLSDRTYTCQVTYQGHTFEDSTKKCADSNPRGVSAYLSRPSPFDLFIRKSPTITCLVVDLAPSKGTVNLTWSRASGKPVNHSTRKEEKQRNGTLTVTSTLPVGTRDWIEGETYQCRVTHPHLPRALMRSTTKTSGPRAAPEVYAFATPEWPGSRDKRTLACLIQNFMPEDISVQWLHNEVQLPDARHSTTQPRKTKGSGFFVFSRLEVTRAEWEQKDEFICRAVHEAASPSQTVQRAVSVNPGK

Which Max effect/effect 1 µM does the source give for B1 here?
Its Max effect/effect 1 µM is 27%.

Which results are given for B2?
EC50: 21.2 nM; Max effect/effect 1 µM: 75%

With B3 as the binder, how does the Max effect/effect 1 µM read?
Its Max effect/effect 1 µM is 19%.

How did the EC50 turn out when B4 was run?
Its EC50 is 34.8 nM.

What about the Max effect/effect 1 µM of the same binder?
The Max effect/effect 1 µM was 48%.

For B5, which EC50 is on record?
Its EC50 is 3.2 nM.

What about the Max effect/effect 1 µM of the same binder?
Its Max effect/effect 1 µM is 26%.

B6 was tested. Which EC50 did it give?
Its EC50 is 2.2 nM.

What about the Max effect/effect 1 µM of the same binder?
The Max effect/effect 1 µM was 68%.

With B7 as the binder, how does the Max effect/effect 1 µM read?
Its Max effect/effect 1 µM is 0%.

Which Max effect/effect 1 µM does the source give for B8 here?
Its Max effect/effect 1 µM is 25%.
